The results in this text go back to US11938195B2, “Upconversion nanoparticle peptide conjugates” (BP InnoMed Limited, priority 2021, dated 2024).

Where no end group is shown, it is not given here. [ ]: non-standard residue; d: D form. Ahx = NCCCCCC(=O)O

The test system of one data set is LMP1-positive LCL3 cells. The data set is described as follows: MTT cytotoxicity assay, LCL3 cells. It counts as cell-based. Conditions: 24 h incubation. Here is the method: The inhibitory effects of the novel nanoprobes on both EBV-infected cancer cells and non-EBV-infected cancer cells were investigated by MTT assays to test the cell viability. The cytotoxic assays were performed in EBV-positive C666 and NPC43 cells, LMP1-positive LCL3 and Raji cells, and the LMP1-positive and -negative HK1 cell pair. HK1, MRC-5 and HeLa cell lines are EBV-negative and they serve as negative controls. […] In addition, UCNP-P4, EBNA1-specific peptide coated UCNPs was included as control group, so the ability of inhibiting EBV-related cancer cells can be directly compared with UCNP-Pn [n=5, 6 and 7 (SEQ ID NO: 5, 6, 7)].
In vitro cytotoxic assays: The cytotoxicity of our nanoprobes was determined by MTT reduction assay. The cells (3×10^3 per well) were seeded onto 96-well plates and incubated overnight, followed by treatment with Pn [n=5, 6 and 7 (SEQ ID NO: 5, 6, 7)], UCNP, UCNP-Pn [n=5, 6 and 7 (SEQ ID NO: 5, 6, 7)] and UCNP-P4 individually at 37° C., 5% CO2 for 24 h in dark. The cell monolayers were rinsed with PBS and 50 μL of MTT, 3-(4,5-dimethylthiazol-2-yl)-2,5-diphenyltetrazolium bromide solution (0.5 mg mL^−1) was added per well and the cells were further incubated for 3 h at 37° C. […] The absorptions of the formazan crystal solutions at 540 nm and 690 nm were measured using a dual-wavelength Labsystem Multiskan microplate reader (Merck Eurolab).

Data set [1] is described as follows: Peptide release from nanoprobes under various time intervals (UV-vis absorbance). It counts as physicochemical. Particulars: 0.5 mg/mL. From the text:
The stability and capability of cleavage of the pH linker were also studied. […] More importantly, TEM images of UCNP-P5 at different pH buffers were observed and investigated in FIG. 1, providing direct evidence on pH-responsive peptide release from UCNP.

Data set [2] can be described thus: Peptide release from nanoprobes under various pH buffers (UV-vis absorbance). Conditions: 24 h in buffer, 0.5 mg/mL. It counts as physicochemical. From the text:
The stability and capability of cleavage of the pH linker were also studied. […] More importantly, TEM images of UCNP-P5 at different pH buffers were observed and investigated in FIG. 1, providing direct evidence on pH-responsive peptide release from UCNP. […]

For another data set, the system named is EBV-positive C666 cells. The data set is described as follows: Two-photon confocal imaging, C666. It counts as cell-based. Conditions: mainly from the nuclei, 24 h incubation. The protocol: After the study of cellular uptake, fluorescent confocal microscopy was used to study the sub-cellular localization with the same set of EBV-/LMP1-positive and -negative cell lines. All these cell lines were treated with as-prepared samples for different time intervals of 1 h, 3 h, 6 h, 12 h and 24 h. Fluorescence signals in the cells were imaged under 980 nm excitation.
The cells were then co-stained with 0.05 mM nuclear dye DRAQ5 for 0.5 h for confocal imaging with a Leica SP8 confocal microscope equipped with a coherent femtosecond laser (690-1050 nm), argon laser (432 nm, 457 nm and 488 nm), He—Ne laser (632 nm), UV lamp. A stage-top cell culture chamber was also used to maintain the atmospheric conditions of 2-7% CO2 and a temperature of 37° C.

For a further data set, the system named is p65. The data set is described as follows: Western blot of p65 (NF-κB) in C666 cells. The data set is classed as cell-based. From the text: NF-κB signaling pathway is critical for the survival of EBV-infected tumor cells. Here we investigated if our nanoprobes could affect this oncogenic pathway. EBV-positive LCL3 and C666 cells were used as models, EBV-negative HK1 cells were used as control and Western blot was used to analyze the protein expression of p65, a major transcription factor in the NF-κB family. […] GAPDH and Histone are regarded as internal standards in cytosolic and nuclear fractions, respectively. […] This is consistent with the cellular uptake results.
Western blotting: EBV-positive C666, LCL3 and EBV-negative HK1 cell pellets were treated with phosphatase and protease inhibitors at 0-4° C. for 30 min. The total protein concentrations were calculated by protein absorbance. The protein was resolved by sodium dodecyl sulfate-polyacrylamide gel electrophoresis (SDS-PAGE) and transferred to cellulose filter membranes. The membranes were blocked with 3% BSA in Tris-buffered saline in 0.1% Tween 20 (TBST) for 1 h with gentle shaking and subsequently incubated with primary antibodies (1:1000) in 3% BSA in TBST at 4° C. for overnight. After rinsing with TBST buffer three times, the blots were then incubated with corresponding secondary anti-rabbit antibody (1:6000) for 1 h. After that, the blots were rinsed again with 3% BSA in TBST for 1 h shaking at room temperature. Lastly, the density of bands was determined by image analysis system after washing with TBST buffer three times.
(A western blot detects proteins with antibodies after separation by electrophoresis.)

The subject of the next data set is C666 cells. The data set is described as follows: Cellular uptake by ICP-MS, C666. The data set is classed as cell-based. Here is the method: (§1) Subsequently, the quantitative distribution and uptake efficiency of nanoprobes in vitro in C666, HK1, HK1-LMP1 and LCL3 cells lines were monitored and investigated by evaluating the lanthanide content originating from the nanoprobes using inductively coupled plasma mass spectrometry (ICP-MS).
(§2) After co-incubation, the cell culture medium containing the nanoprobes was removed, and the exposed cells were further rinsed with 1 mL PBS three times. After that, the cells were trypsinized and re-dispersed in 1 mL cell medium. The cells were collected by centrifugation at 1500 rpm, and the cell pellet was digested in 100 μL concentrated HNO3 (69%) at room temperature for 3 h. Then, each cell pellet in centrifuge tube was filled up to 10 mL with 1% HNO3. The cellular uptake of all the nanoprobes was recorded via an Agilent 7500 series ICP-MS instrument. All ICP experiments were performed three times, and the values of Gd concentration (ppm) obtained were calculated and averaged.

The next data set has as its system HK1-LMP1 cells. The data set is described as follows: Cellular uptake by ICP-MS, HK1-LMP1. It counts as cell-based. The protocol: as §1, §2

For the substance “UCNP-P5: UCNP is NaGdF4:Yb^3+, Er^3+@NaGdF4 and plurality of polypeptides is Ahx-YFMVFGGRrRKGGFWLY (SEQ ID NO: 5), pH-sensitive imine linker ([Ahx]YFMVFGGR[dR]RKGGFWLY; also: conjugated to UCNP NaGdF4:Yb3+,Er3+@NaGdF4 via pH-sensitive imine linker)”, the “IC50 in LCL3” value in the data set on LMP1-positive LCL3 cells turned out to be 19 mg/mL. Also, the Peptide release rate in data set [1] (1 h) is listed as 0%; in data set [1] (3 h), 0%; in data set [1] (6 h), 0.1%; in data set [1] (12 h), 0.5%; in data set [1] (24 h), 0.7%; in data set [1] (3 day), 0.8%. Moreover, the Peptide release rate stood at 1.1% in data set [1] (5 day); 1.9% in data set [1] (7 day); 84.6% in data set [2] (pH 5.0); 56.1% in data set [2] (pH 5.5); 34.8% in data set [2] (pH 6.0); 20.9% in data set [2] (pH 6.5). The Peptide release rate in data set [2] (pH 7.0) was 6.1%; in data set [2] (pH 7.4) it was 0%. Also, the “Responsive emission enhancement (lambda scan)” value in the data set on EBV-positive C666 cells was “two-fold”. Besides, in the data set with p65, the “Decreased p65 expression, nuclear fraction” value is on record as 89%. The “Cellular uptake (Gd amount by ICP-MS)” value in the data set on C666 cells (50 μg/mL) was “largest amount of cellular uptake”; in the data set with HK1-LMP1 cells (HK1-LMP1, 50 μg/mL), “largest amount of cellular uptake”. The “Gd amount relative to UCNP-P4” value in the data set with C666 cells (24 h incubation) is given as “over twice”. Further, the “Uptake relative to UCNP-P6 and UCNP-P7” value in the data set on HK1-LMP1 cells (HK1-LMP1 (HK1 / HK1-LMP1 cell pair)) was “two-fold”.
